# Experimental data taken from US7767803B2, “Stabilized aptamers to PSMA and their use as prostate cancer therapeutics” (Archemix Corp., priority 2002, dated 2010).
# B1: GGGAGGACGAUGCGGACCGAAAAAGACCUGAfCfUfUfCfUAfUAfCfUAAGfUfCfUAf CGfUfUfCfCfCAGAfCGAfCfUfCGfCfCfCGA (nucleic acid)
# chain: GGGAGGACGAUGCGGACCGAAAAAGACCUGACUUCUAUACUAAGUCUACGUUCCCAGACGACUCGCCCGA
# modifications: listed as RNA, chemistry not fully specified
# notes: existing PSMA specific aptamer of rRfY composition, described in U.S. Ser. No. 09/978,969
# Assays:
# [1] = tested on: LNCaP cells (PSMA+); assay: LNCaP FACS assay with fluorescein-labeled aptamers; type: cell-based
# Source text: The parent A9 aptamer sequence (SEQ ID NO 168) is predicted by the MFOLD algorithm implemented in the RNAStructure program v. 4.11 to fold into a partially mismatched hairpin that encompasses almost the entire molecule. A series of truncated constructs were designed, in which self-pairing nucleotides from the 5′- and 3′-ends were simultaneously removed, chemically synthesized using conventional solid-phase phosphoramidite-based synthesis, and tested. In the design of some of the truncated A9 aptamers, see e.g. ARC591, additional bases were added to the 3′ and 5′ ends of the truncate, where the bases added to the 5′ end were capable of forming Watson-Crick base pairs with those added to the 3′ end thereby increasing the length of stem structure. Truncated aptamers were 5′-labeled with fluorescein and tested for binding in to LNCaP cells (PSMA+) in the FACS assay described below. PC-3 cells (PSMA−) were used as a control cell line. The sequences of the truncated A9 aptamers designed are listed below in Table 6 below.
# To accomplish 5′-fluorescein labeling, aptamers were synthesized with a 5′-amine and then modified post-solid phase synthesis. The required aptamer was dissolved to a concentration of ˜10-50 mg/mL in 25 mM phosphate buffer, pH 7.4. The small molecule, NHS ester of fluorescein, was dissolved to a concentration of 10 mg/mL in DMSO. 1.5 Molar equivalents were added to the aptamer and the solution vortexed for ˜15 seconds. The reaction was allowed to proceed in the dark at room temperature for 1 hour and then a 5 μL aliquot was withdrawn, diluted with water and analyzed by HPLC. Additional equivalents of the small molecule were added until the reaction was complete by HPLC. Excess small molecules were removed by gel filtration.
# To prepare aptamers for the FACS assay, PSMA aptamers were serially diluted (0-1 uM) in FACS buffer (1×DPBS w/Ca^++/Mg^++ (Gibco, Carlsbad, Calif.) supplemented with 10 mg/mL salmon sperm DNA & 0.2% Na Azide), in a V-bottom 96 well plate, at the concentrations to be tested. LNCaP and PC-3 cells (ATCC, Manassas, Va.) were harvested with trypsin, and 200,000 cells/well were counted, washed once with 1×DPBS (with Ca^++ and Mg^++) and resuspended in 200 μl of FACS Buffer. The 200 μl of cells in FACS buffer were added to individual wells of a new 96 well plate, pelleted by centrifugation (1300 rpm for 5 minutes), and resuspended in 100 μl of the appropriate concentration of diluted aptamer. FACS buffer, c-PSMA antibody (3C6) (Northwest Biotherapeutics, Bothell, Wash., Cat #: 60-5002) and an irrelevant fluorescein isothiocyanate (“FITC”) mouse IgG1 isotype control antibody (BD Pharmingen, San Diego, Calif., Cat#: 554679) were used as controls. The wells of aptamer/cell mixture were incubated at room temperature for 20-30 minutes. […]
# [2] = tested on: PC-3 cells (PSMA−); assay: FACS assay on control cell line; type: cell-based
# Source text: The parent A9 aptamer sequence (SEQ ID NO 168) is predicted by the MFOLD algorithm implemented in the RNAStructure program v. 4.11 to fold into a partially mismatched hairpin that encompasses almost the entire molecule. A series of truncated constructs were designed, in which self-pairing nucleotides from the 5′- and 3′-ends were simultaneously removed, chemically synthesized using conventional solid-phase phosphoramidite-based synthesis, and tested. […]
# To prepare aptamers for the FACS assay, PSMA aptamers were serially diluted (0-1 uM) in FACS buffer (1×DPBS w/Ca^++/Mg^++ (Gibco, Carlsbad, Calif.) supplemented with 10 mg/mL salmon sperm DNA & 0.2% Na Azide), in a V-bottom 96 well plate, at the concentrations to be tested. LNCaP and PC-3 cells (ATCC, Manassas, Va.) were harvested with trypsin, and 200,000 cells/well were counted, washed once with 1×DPBS (with Ca^++ and Mg^++) and resuspended in 200 μl of FACS Buffer. […]
# Cell samples were analyzed on a FACS Scan machine (Becton Dickinson, San Jose, Calif.) under the following parameters: FSC/SSC, FL-1/FSC, FL-3/FSC. The unstained and/or isotype controls were used to establish gating parameters, and the data was analyzed using Cell Quest Pro software version 5.1.1 (Becton Dickinson Immunocytometry Systems, San Jose, Calif.).
molecule,measurement,setting,value
B1,binding to LNCaP (PSMA+) cells by FACS (in words),[1],binding to LNCaP (PSMA+) cells
same,binding to PC-3 (PSMA−) cells by FACS (in words),[2],not to PC-3 (PSMA−) cells
